Among the data in article PMC8877407 are stoichiometry N values, retold here.

This experiment deals with recombinant L. infantum GDP-mannose pyrophosphorylase (LiGDP-MP) (Leishmania infantum). The experiment in a line: SEC; Superdex 200 10/300 GL, 50 mM Tris-HCl pH 7.5, 1 M NaCl, 1 mM DTT, 10% glycerol; concentrated Ni-NTA fractions loaded; sizes estimated from elution volumes against standard proteins.

“And” between values parts separate entries of the source, which are not always exact repeats. Identical values can stand only once.

For orientation: stoichiometry N means the number of molecules, sites or subunits per partner or assembly. Consider “recombinant L. infantum GDP-mannose pyrophosphorylase (LiGDP-MP) (enzyme)”, for which the stoichiometry N was 6 and 3.
